Assays:
[1] = target: CD4-TM:CaMbp(M2):eLOV:TEVcs(high affinity):Gal4 (Avena sativa); test: cell-based or functional assay
[2] = target: CD4-TM:CaMbp(M2):TEVcs:Gal4 (without LOV domain) (UniProt P04386); test: cell-based or functional assay
[3] = target: CD4-TM:CaMbp(M2):LOV:TEVcs(high affinity):Gal4 (original LOV2) (Avena sativa); test: cell-based or functional assay
[4] = target: FLARE transcription factor component as used in cultured neurons (Neurexin-3b-derived TM, soma targe (Avena sativa)); test: cell-based or functional assay
[5] = target: Aga2p-HA-eLOV-TEVcs(ENLYFQY)-FLAG displayed on yeast (UniProt P32781)

CD4-TM:CaMbp(M2):eLOV:TEVcs(high affinity):Gal4 (Avena sativa), sequence (Q2QYY8 other isoform, or with tags, fused parts or gaps): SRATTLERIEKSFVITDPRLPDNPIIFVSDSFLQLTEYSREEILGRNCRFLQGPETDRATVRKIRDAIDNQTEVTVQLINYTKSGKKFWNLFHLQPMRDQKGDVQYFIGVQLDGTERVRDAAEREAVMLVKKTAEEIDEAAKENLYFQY

CaM-TEV(truncated) (from UniProt P04517 2038-2256)
high/low Ca^2+ S/N (reporter expression, HEK cells) [1]: 16
light/dark S/N (reporter expression, HEK cells) [1]: 23
high/low Ca^2+ S/N (reporter expression, HEK cells) [2]: 2
high/low Ca^2+ S/N (reporter expression, HEK cells) [3]: 5
light/dark S/N (reporter expression, HEK cells) [3]: 2

FLARE protease component as used in cultured neurons (CaM-TEV) (from UniProt P04517 2038-2256)
S/N with versus without neuronal activity (mCherry, field stimulation with blue light, 8 minutes) [4]: 11
light/dark S/N (mCherry reporter, cultured neurons, field stimulation, FIG. 10D) [4]: 17
light/dark S/N (mCherry reporter, cultured neurons, media change, FIG. 10C) [4]: 121
mCherry signal with stimulation against light exposed/non-stimulated neurons [4]: > 10 fold

MBP-TEV(S219V) fusion, purified
anti-Flag/anti-HA staining of yeast after TEV protease treatment in the dark (FACS) [5]: Evolved LOV displays superior protection of TEVcs against TEV cleavage in the dark state
